Tests used:
[1] = biological target: Triosephosphate isomerase from G. gallus (G. gallus) (UniProt P00940); assay: NMR titration; 2.5 μM [U-15N]-TPI with 1 mM GAP, titrated with 0-30 μM ribosomes; integrated amide proton envelope (6.30-10.54 ppm) of 1H-15N HSQC; 10 mM sodium phosphate pH 7.5, 0.1 M NaCl, 290 K; apparent Kd from the total binding equation with a nonspecific term; the paper calls it an upper limit to Kd
[2] = biological target: Triosephosphate isomerase from G. gallus (G. gallus) (UniProt P00940); assay: NMR titration; 2.5 μM [U-15N]-TPI with 5 mM DHAP, titrated with 0-30 μM ribosomes; integrated amide proton envelope (6.30-10.54 ppm) of 1H-15N HSQC; 10 mM sodium phosphate pH 7.5, 0.1 M NaCl, 290 K; apparent Kd from the total binding equation with a nonspecific term; the paper calls it an upper limit to Kd

Triosephosphate isomerase from G. gallus (G. gallus), sequence (P00940 whole entry): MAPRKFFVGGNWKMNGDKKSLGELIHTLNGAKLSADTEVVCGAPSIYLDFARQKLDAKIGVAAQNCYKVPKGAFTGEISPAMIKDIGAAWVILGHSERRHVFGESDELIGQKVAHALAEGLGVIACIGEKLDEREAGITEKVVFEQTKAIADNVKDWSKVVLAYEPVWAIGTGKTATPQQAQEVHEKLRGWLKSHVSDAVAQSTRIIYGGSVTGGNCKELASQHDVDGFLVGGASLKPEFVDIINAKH

- Kd [1]: 1210 nM
- Kd [2]: 1050 nM
Substance: Intact 70S ribosomes from E. coli MRE600 (from UniProt P0A7K2 1-121; P0A7R1 1-149; P0A7J3 1-165; P0A7J7 1-142; P02413 1-144; P0C018 1-117; P0A7L3 1-118; P61175 1-110; P0AG67 1-557; P02358 1-135; P0A7W7 1-130; P0A7R9 1-129) (complex)
